Results published in patent US20100222269A1 (Novo Nordisk, published 2010).
Starred links: 1 amine or outer side, 2 acyl side, 3 side chain; linkers in the order of their positions; H or OH if unused. Positions of bridges follow the written chain, without caps; N, C: chain ends. Non-standard residues stand in square brackets, D forms with d. Groups on a side chain read outwards from the residue. No end group written: not given here. *: point of attachment. C20 diacid = O=C(O)CCCCCCCCCCCCCCCCCCC(=O)*; C18 diacid = O=C(O)CCCCCCCCCCCCCCCCC(=O)*; γGlu = O=C(O)[C@H](CCC(=O)[*:2])N[*:1]; AEEA = NCCOCCOCC(=O)O

B1: N-alpha-[(S)-4-carboxy-4-(19-carboxynonadecanoylamino)butyryl]-Glu-Glu-Arg-[Glu1]-pramlintide (1-37) (peptide)
peptide: EERECNTATCATQRLANFLVHSSNNFGPILPPTNVGSNTY
modifications: N-alpha-[(S)-4-carboxy-4-(19-carboxynonadecanoylamino)butyryl] on the N-terminal Glu of the extension; disulfide bridge between the two Cys; C-terminal amide

These binders were tested against Amylin 3(a) receptor (human calcitonin receptor (CTa) with RAMP-3) on BHK570 cells (human, UniProt P30988 25-474) (assay: cell-based or functional assay).
Sequence of Amylin 3(a) receptor (human calcitonin receptor (CTa) with RAMP-3) on BHK570 cells (P30988 25-474): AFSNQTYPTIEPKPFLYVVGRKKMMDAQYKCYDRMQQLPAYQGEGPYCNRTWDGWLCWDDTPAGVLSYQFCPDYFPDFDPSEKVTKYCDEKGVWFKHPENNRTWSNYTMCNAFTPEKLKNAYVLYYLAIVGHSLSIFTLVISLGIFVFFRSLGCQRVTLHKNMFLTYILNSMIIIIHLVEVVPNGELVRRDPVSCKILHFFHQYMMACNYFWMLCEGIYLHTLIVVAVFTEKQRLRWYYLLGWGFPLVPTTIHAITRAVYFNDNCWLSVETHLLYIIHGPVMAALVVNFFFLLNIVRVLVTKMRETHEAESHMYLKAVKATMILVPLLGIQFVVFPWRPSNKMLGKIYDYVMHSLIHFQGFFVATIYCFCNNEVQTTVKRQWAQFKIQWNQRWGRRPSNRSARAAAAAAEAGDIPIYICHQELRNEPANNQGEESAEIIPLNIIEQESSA
KCNTATCATQRLANFLVHSSNNFGK([γGlu-C18 diacid])ILPPTNVGSNTY-NH2 (disulfide 2-7 (inferred)) [N-epsilon25-[(S)-4-carboxy-4-(17-carboxyheptadecanoylamino)butyryl]-[Lys25]-pramlintide (1-37)] gave a Potency luciferase assay of 0.09 nM.
With KCK([γGlu-C18 diacid])TATCATQRLANFLVRSSQNLGPVLPPTNVGSNTY-NH2 (disulfide 2-7 (inferred)) the Potency luciferase assay was 0.04 nM.
ECK(17‑carboxyheptanoyl)TATCATQRLANFLVESSNNFGPILPPTNVGSNTY-NH2 (disulfide 2-7 (inferred)) [N-epsilon3-(17-carboxyheptanoyl)-[Glu1,Lys3,Glu18]-pramlintide (1-37)] was tested, and the Potency luciferase assay was 0.03 nM.
For KCK([AEEA-4‑(16-1H-tetrazol-5-yl-hexadecanoylsulfamoyl)butyryl])TATCATQRLANFLVHSSNNFGPILPPTNVGSNTY-NH2 (disulfide 2-7 (inferred)), the Potency luciferase assay was 0.1 nM.
With EERECNTATCATQRLANFLVHSSNNFGPILPPTNVGSNTY-NH2 (disulfide 5-10 (inferred); not fully specified (N-terminus)) [N-alpha-[4-(16-1H-tetrazol-5-yl-hexadecanoylsulfamoyl)-butyryl]-Glu-Glu-Arg-[Glu1]pramlintide (1-37)] the Potency luciferase assay was 0.09 nM.
KCK([AEEA-AEEA-C18 diacid])TATCATQRLANFLVHSSNNFGPILPPTNVGSNTY-NH2 (disulfide 2-7 (inferred)) showed a Potency luciferase assay of 0.1 nM.
KCK([AEEA-Glu-Glu-C20 diacid])TATCATQRLANFLVRSSQNLGPVLPPTNVGSNTY-NH2 (disulfide 2-7 (inferred)) gave a Potency luciferase assay of 0.3 nM.
For KCK([Glu-Glu-Glu-Glu-C20 diacid])TATCATQRLANFLVRSSQNLGPVLPPTNVGSNTY-NH2 (disulfide 2-7 (inferred)), the Potency luciferase assay was 0.6 nM.
In the case of {C20 diacid}-EERECQTATCATQRLANFLVRSSQNLGPVLPPTNVGSNTY-NH2 (disulfide 5-10 (inferred)) [N-alpha-(19-carboxynonadecanoyl)-Glu-Glu-Arg-[Glu1,Gln3,Arg18,Gln21,Leu23,Val26]-pramlintide (1-37)], the Potency luciferase assay is reported as 0.09 nM.
For {C20 diacid}-E[AEEA]ECQTATCATQRLANFLVRSSQNLGPVLPPTNVGSNTY-NH2 (disulfide 4-9 (inferred)), the Potency luciferase assay was 0.4 nM.
Binder {C20 diacid}-EEEECQTATCATQRLANFLVRSSQNLGPVLPPTNVGSNTY-NH2 (disulfide 5-10 (inferred)) [N-alpha-(19-carboxynonadecanoyl)-Glu-Glu-Glu-[Glu1,Gln3,Arg18,Gln21,Leu23,Val26]-pramlintide (1-37)] has a Potency luciferase assay of 2 nM.
B1 showed a Potency luciferase assay of 0.3 nM.
Binder EERECNTATCATQRLANFLVHSSNNFGPILPPTNVGSNTY-NH2 (disulfide 5-10 (inferred); not fully specified (N-terminus)) has a Potency luciferase assay of 2 nM.
In the case of {C18 diacid}-EERECNTATCATQRLANFLVHSSNNFGPILPPTNVGSNTY-NH2 (disulfide 5-10 (inferred)) [N-alpha-(17-carboxyheptadecanoyl)-Glu-Glu-Arg-[Glu1]pramlintide (1-37)], the Potency luciferase assay is reported as 0.06 nM.
Work on KCNTATCATQRLANFLVHSSNNFGPILPK(C20 diacid)TNVGSNTY-NH2 (disulfide 2-7 (inferred)) [N-epsilon29-(19-carboxynonadecanoyl)-[Lys29]-pramlintide (1-37)] yielded a Potency luciferase assay of 5 nM.
CK([γGlu-4‑(16-1H-tetrazol-5-ylhexadecanoylsulfamoyl)butyryl])TATCATQRLANFLVHSSNNFGPILPPTNVGSNTY-NH2 (disulfide 1-6 (inferred)) showed a Potency luciferase assay of 0.04 nM.
{C20 diacid-γGlu}-CNTATCATQRLANFLVHSSNNFGPILPPTNVGSNTY-NH2 (disulfide 1-6 (inferred)) [N-alpha-[(S)-4-carboxy-4-(19-carboxynonadecanoylamino)butyryl]-pramlintide (2-37)] was tested, and the Potency luciferase assay was 0.1 nM.
{C20 diacid}-EER[AEEA]ECNTATCATQRLANFLVHSSNNFGPILPPTNVGSNTY-NH2 (disulfide 6-11 (inferred)) was tested, and the Potency luciferase assay was 0.4 nM.
Binder {C20 diacid-γGlu}-RCNTATCATQRLANFLVHSSNNFGPILPPTNVGSNTY-NH2 (disulfide 2-7 (inferred)) [N-alpha-[(S)-4-carboxy-4-(19-carboxynonadecanoylamino)butyryl]-[Arg1]-pramlintide (1-37)] has a Potency luciferase assay of 0.04 nM.
In the case of {C20 diacid}-ERCNTATCATQRLANFLVHSSNNFGPILPPTNVGSNTY-NH2 (disulfide 3-8 (inferred)) [N-alpha-(19-carboxynonadecanoyl)-Glu-[Arg1]-pramlintide (1-37)], the Potency luciferase assay is reported as 0.1 nM.
With {C20 diacid-γGlu}-RRCNTATCATQRLANFLVHSSNNFGPILPPTNVGSNTY-NH2 (disulfide 3-8 (inferred)) [N-alpha-[(S)-4-carboxy-4-(19-carboxynonadecanoylamino)butyryl]-Arg-[Arg1]-pramlintide (1-37)] the Potency luciferase assay was 0.1 nM.
In the case of {C20 diacid-γGlu}-KKCNTATCATQRLANFLVHSSNNFGPILPPTNVGSNTY-NH2 (disulfide 3-8 (inferred)) [N-alpha-[(S)-4-carboxy-4-(19-carboxynonadecanoylamino)butyryl]-Lys-pramlintide (1-37)], the Potency luciferase assay is reported as 0.1 nM.
Binder {C20 diacid-γGlu}-RKCNTATCATQRLANFLVHSSNNFGPILPPTNVGSNTY-NH2 (disulfide 3-8 (inferred)) [N-alpha-[(S)-4-carboxy-4-(19-carboxynonadecanoylamino)butyryl]-Arg-pramlintide (1-37)] has a Potency luciferase assay of 0.2 nM.
{C20 diacid}-EKRKCNTATCATQRLANFLVHSSNNFGPILPPTNVGSNTY-NH2 (disulfide 5-10 (inferred)) [N-alpha-(19-carboxynonadecanoyl)-Glu-Lys-Arg-pramlintide (1-37)] showed a Potency luciferase assay of 0.08 nM.
Binder {C20 diacid}-EKRCNTATCATQRLANFLVHSSNNFGPILPPTNVGSNTY-NH2 (disulfide 4-9 (inferred)) [N-alpha-(19-carboxynonadecanoyl)-Glu-Lys-[Arg1]-pramlintide (1-37)] has a Potency luciferase assay of 0.07 nM.
KCNTATCATQRLANFLVHSSNNFGPILPK([AEEA-AEEA-C20 diacid])TNVGSNTY-NH2 (disulfide 2-7 (inferred)) was tested, and the Potency luciferase assay was 0.2 nM.
Binder KCNTATCATQRLANFLVHSSK([AEEA-AEEA-C20 diacid])NFGPILPPTNVGSNTY-NH2 (disulfide 2-7 (inferred)) has a Potency luciferase assay of 0.1 nM.
KCNTATCATQRLANFLK([AEEA-AEEA-C20 diacid])HSSNNFGPILPPTNVGSNTY-NH2 (disulfide 2-7 (inferred)) gave a Potency luciferase assay of 0.1 nM.
KCNTATCATQRLANFLVRSSNNFGK([AEEA-AEEA-C18 diacid])ILPPTNVGSNTY-NH2 (disulfide 2-7 (inferred)) was tested, and the Potency luciferase assay was 0.04 nM.
KCNTATCATQRLANFLVHSSNNFGK([AEEA-AEEA-C20 diacid])ILPPTNVGSNTY-NH2 (disulfide 2-7 (inferred)) was tested, and the Potency luciferase assay was 0.06 nM.
